Laboratory results taken from patent US20180141975A1 (VIROGIN BIOTECH CANADA, published 2018).

Experiments:
mouse PD-L1 Fc = target: T1, mouse PD-L1 Fc (mouse, UniProt Q9EP73 19-238); experiment: competition ELISA, peptide at 3 and 10 uM against mouse PD-1 Fc on coated mouse PD-L1 Fc (FIG. 9A)
T1 construct: Plate-coated reagent; not shown: Fc part
Description: More specifically, mouse and human WT and TF peptides (3 and 10 μM) were mixed with recombinant mouse PD-1 Fc and bound to a mouse PD-L1 Fc coated 96-well Immuno Maxisorp flat bottom plate. Binding was detected via a biotinylated anti-mouse PD-1 antibody, streptavidin-horseradish peroxidase (HRP), and 3,3′, 5,5′ Tetramethylbenzidine (TMB) substrate. Absorbance measurements were collected at 450 nm via a plate reader. The increased percent (%) of mouse (and human) PD-1/PD L1 inhibition was compared to a control (no peptide) sample. […] The differences between the human and mouse peptides are illustrated in FIG. 9B.

[1] = target: T2, recombinant human PD-L1 Fc (human, UniProt Q9NZQ7 19-239); experiment: summary of the examples (competition ELISA, peptide array)
T2 construct: Recombinant reagent; not shown: Fc part
T2 sequence (Q9NZQ7 19-239 limits assumed): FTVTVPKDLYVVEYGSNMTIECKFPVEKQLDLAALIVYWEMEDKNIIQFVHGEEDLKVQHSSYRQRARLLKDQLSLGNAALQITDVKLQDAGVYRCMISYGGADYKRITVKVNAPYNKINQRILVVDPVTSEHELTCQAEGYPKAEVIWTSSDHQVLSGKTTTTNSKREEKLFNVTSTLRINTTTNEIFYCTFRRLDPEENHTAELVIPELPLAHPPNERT

[2] = target: T2, recombinant human PD-L1 Fc; experiment: competition ELISA, peptides and combinations at 3 and 10 uM against human PD-1 Fc on coated human PD-L1 Fc (FIG. 5A)

T1 sequence (Q9EP73 19-238 limits assumed): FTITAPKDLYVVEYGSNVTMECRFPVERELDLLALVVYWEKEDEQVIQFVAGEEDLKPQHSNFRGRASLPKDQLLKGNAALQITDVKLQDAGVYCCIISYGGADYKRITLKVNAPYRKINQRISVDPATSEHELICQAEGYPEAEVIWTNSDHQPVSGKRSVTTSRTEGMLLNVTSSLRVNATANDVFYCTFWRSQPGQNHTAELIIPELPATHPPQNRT

Binder	binding result (mouse PD-L1 Fc)	binding result [2]	also measured
WNRLSPSNQT [Mouse WT peptide (SEQ ID NO:35, WNRLSPSNQT)]	binds	–	–
TRYPSPSPKPEGRF [Mouse TF peptide (SEQ ID NO:36, TRYPSPSPKPEGRF)]	binds	–	–
WYRMSPSNQT (Chemically synthesized peptide found by a peptide array method; also called human WT peptide) [WT peptide (SEQ ID NO:1, WYRMSPSNQT)]	–	–	binding result [1]: binds

Second part, led by results:

binding result (mouse PD-L1 Fc)	binding result [2]	Binder	also measured
–	binds	EYRMSPSNQT (A derivative of the WT peptide (W1E)) [ET peptide (SEQ ID NO:25, EYRMSPSNQT)]	–
–	binds	YYRMSPSNQT (A derivative of the WT peptide (W1Y)) [YT peptide (SEQ ID NO:28, YYRMSPSNQT)]	–
